Assay results published in publication PMC3887192.
pKd: −log10 of the molar value.

Biological target: HLA A*0201-…
Assay: SPR
Conditions: 25 °C

| Substance | pKd | dG [kcal/mol-1] | other: Half-life [s] |
| --- | --- | --- | --- |
| ILA1 TCR ILA1α1 (CDR3 mutations, not printed) | 7.59 | -9.65 | 1100 |
| ILA1 TCR ILA1α1β1 (CDR2&3 mutations, not printed) | 8.70 | – | – |
| MEL5 TCR MEL5β1 (CDR2 mutations, not printed) | 5.74 | -7.31 | 2.4 |
| MEL5 TCR MEL5β2 (CDR2 mutations, not printed) | 5.89 | -7.49 | 2.4 |
| MEL5 TCR MEL5β3 (CDR2 mutations, not printed) | 6.07 | -7.72 | 4.2 |
| MEL5 TCR MEL5β5 (CDR2&3 mutations, not printed) | 5.68 | -7.22 | 1.2 |
| MEL5 TCR MEL5β7 (CDR2&3 mutations, not printed) | 6.27 | -7.97 | 27.6 |
| MEL5 TCR MEL5β8 (CDR2&3 mutations, not printed) | 6.77 | -8.61 | 49.2 |

Further substances by rising pKd, results first:

| pKd | dG [kcal/mol-1] | other: Half-life [s] | Substance |
| --- | --- | --- | --- |
| 5.85 | -7.45 | 3 | MEL5 TCR MEL5β4 (CDR2 mutations, not printed) |
| 6.68 | -8.49 | 11.4 | MEL5 TCR MEL5β6 (CDR2&3 mutations, not printed) |
| 8.02 | – | – | ILA1 TCR ILA1β1 (CDR2 mutations, not printed) |
| 8.04 | – | – | ILA1 TCR ILA1β2 (CDR2 mutations, not printed) |
| 8.51 | – | – | ILA1 TCR ILA1α1β2 (CDR2&3 mutations, not printed) |
